For series [1], the target named is UDP-N-acetylglucosamine (UDP-GlcNAc) 2-epimerase (NmSacA) (Neisseria meningitidis, UniProt A0A0U1RGY0). It is filed as biochemical.
In series [2] the test system is CC(=O)N[C@@H]1[C@@H](OP(=O)(O)OP(=O)(O)OC[C@H]2O[C@@H](N3CCC(=O)NC3=O)[C@H](O)[C@@H]2O)O[C@H](CO)[C@@H](O)[C@@H]1O. In words: purified protein.
The subject of series [3] is CC(=O)N[C@@H]1[C@@H](OP(=O)(O)OP(=O)(O)OC[C@H]2O[C@@H](n3ccc(=O)[nH]c3=O)[C@H](O)[C@@H]2O)O[C@H](CO)[C@@H](O)[C@@H]1O. In words: purified protein.
In series [4] the test system is CC(=O)N[C@H]1[C@@H](OP(=O)(O)OP(=O)(O)OC[C@H]2O[C@@H](n3ccc(=O)[nH]c3=O)[C@H](O)[C@@H]2O)O[C@H](CO)[C@@H](O)[C@@H]1O. In words: purified protein.
The test system of series [5] is CCC(=O)N[C@@H]1[C@@H](OP(=O)(O)OP(=O)(O)OC[C@H]2O[C@@H](n3ccc(=O)[nH]c3=O)[C@H](O)[C@@H]2O)O[C@H](CO)[C@@H](O)[C@@H]1O. In words: purified protein.
The subject of series [6] is O=C(CO)N[C@@H]1[C@@H](OP(=O)(O)OP(=O)(O)OC[C@H]2O[C@@H](n3ccc(=O)[nH]c3=O)[C@H](O)[C@@H]2O)O[C@H](CO)[C@@H](O)[C@@H]1O. Briefly: purified protein.

The results in this text go back to paper PMC4698195 (Carbohydrate research, 2015).

The Ki is the dissociation constant of the complex between target and ligand, obtained from inhibition or displacement. A word on the Km: it is the substrate concentration at which the rate is half of its maximum. A word on the kcat: it is the number of substrate molecules converted per active site and unit of time at saturation. As usually defined, the kcat/Km is the turnover number divided by the Michaelis constant.

UDP-N-acetylglucosamine (UDP-GlcNAc) 2-epimerase (NmSacA), sequence (A0A0U1RGY0 whole entry): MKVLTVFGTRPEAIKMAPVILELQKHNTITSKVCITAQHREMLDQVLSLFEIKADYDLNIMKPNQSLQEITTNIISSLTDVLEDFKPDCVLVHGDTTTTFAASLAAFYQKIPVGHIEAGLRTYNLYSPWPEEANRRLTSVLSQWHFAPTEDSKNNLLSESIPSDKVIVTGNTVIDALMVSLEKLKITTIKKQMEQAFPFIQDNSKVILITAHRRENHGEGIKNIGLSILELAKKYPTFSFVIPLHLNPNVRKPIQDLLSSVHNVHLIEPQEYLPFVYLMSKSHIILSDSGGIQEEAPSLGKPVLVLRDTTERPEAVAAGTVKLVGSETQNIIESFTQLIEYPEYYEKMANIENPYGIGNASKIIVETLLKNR

In series [1], `CC(=O)NC1=CO[C@H](CO)[C@@H](O)[C@@H]1O` [D, 2-acetamidoglucal] showed an inhibition constant (Ki) of 14 mM.
For `O=c1ccn([C@@H]2O[C@H](COP(=O)(O)OP(=O)(O)O)[C@@H](O)[C@H]2O)c(=O)[nH]1` [UDP], the Ki in series [1] stood at 0.8 mM.
Take “UDP-N-acetylglucosamine (UDP-GlcNAc) 2-epimerase (NmSacA) (Neisseria meningitidis Z2491)”: the Km in series [2] is given as 63 ± 7.0 mM; in series [3], 5.2 ± 1.1 mM; in series [4], 3.6 ± 0.5 mM; in series [5], 51 ± 5.0 mM; in series [6], 20 ± 1.9 mM. Besides, the turnover number (kcat) in series [2] was 6.7 ± 0.5 s⁻¹; in series [3], 52 ± 5 s⁻¹; in series [4], 31 ± 2 s⁻¹; in series [5], 7.8 ± 0.3 s⁻¹; in series [6], 4.2 ± 0.2 s⁻¹. Moreover, the kcat/Km in series [2] came to 110 M⁻¹ s⁻¹; in series [3], 10000 M⁻¹ s⁻¹; in series [4] it was 8600 M⁻¹ s⁻¹; in series [5] it was 150 M⁻¹ s⁻¹; in series [6] it was 210 M⁻¹ s⁻¹.
